From the DeepSol protein solubility set come the findings set out here.

A short description of the data set: soluble on expression in E. coli; label from the status in PepcDB or PDB records.
Turning to “MAIADEFRQLQTRLLECWEGTETFIPELPRGPGGIERDILVVPSLSFPQPELGKITGYTHYEERQLYTLIQLRNPRTRMIYVTSQPLHPSIVDYYLDLLPGVPSCHARDRLLLLATYDRSDKPLTAKILERPRLLERIRQALRPNQAYMVCFNSTPLERELAVRLGVPLYSTDPDLLYWGTKAGSRELFAAAGIRHPIGSGFLQGVPELVRAIAHLQEKCPELQQLVVKLNEAFSGEGNALLDLRPLRPLGSPHTPDHLQRIENSLEDMVFQAPNETWASYRQRFTDLGGIVEAFVEGTVKRSPSVQGCITPKGSVEIVSTHEQLLNAPTGQIFIGCEFPAHADYRQQLQELGQKVGTYLAQQGVIGCFSVDVVATQTTEGWELYAIEINLRKGGTTHPFMTLKFLTDGHYELASGRFYSKHRRPKYYIASDNLCQPHYRGLLPNDLLDMIARYHLHFDSSTETGTVFHLMGALSEFGKLGLVSIGNTPEEAQAIYNQTIGVLDAAALLEHHHHHH”, the “soluble on expression in E. coli” value is recorded as “not soluble”.
As to “MGSDKIHHHHHHMSRLERLVTIDSLIRSRTYPSVADFCARFELSERAIFADLAYLRERIGAPLAYSRRNGGYYYRDPTWVMPMLQVTEGELLAFLISTELSRRYLGTPFAAPLRRLLQRMEAYITEQIVVHPDALLAHLTFQPGALAAVDPELVQVLHECIRECYPVEITYFTASRQELTHRLIEPYHLFLARGDLHVIAFDHLRGELRQFALYRIRQWQVRRHERFVRNPQIDIAAYLRNGFVVEGGTQPLLIEIAFDREQAPYIRERQWHATQQLEDQPDGGVILRFQSGALGEIKRWVLGYGSHARVLSPPELVQMVADELRKAAALYT”, the “soluble on expression in E. coli” value is recorded as “not soluble”.
Consider “MTDETTQNIKDKTEEELAALLDQTLGEFTATPAPKPRTTDDELDELMASADQEAAQKAAKDFQKMLEQMVTLQEEAMKKAGADPSEGEGEQPLDPNDPEALAMMDALKQLMECSSNVANASNPEEFMAGLDMLRSPNSPMEPFMSMIMQTLASKEVMYPPLKEIFDNYPKYLEDNGAGLDAETKERYEKQFEVLGKICTEFEKQPELAEVQPVDAATQPAPEADPASIEHFEKLGKLLVELQQYGYPPKELVGALPDGWQIDESGLPKVADAAAATEACSIM”, for which the “soluble on expression in E. coli” value is listed as “soluble”.
In the case of “MAHHHHHHMTKVWMPWAYQALLAYAHSGAAHGQANLWLKGQTSTPLQRICDPVPNLLISQSSQGGQRALWLLHRPESVLGLVVSPQWQGESGDHELCDASVVSKRKIVRVMKHLHSLPFRVAGSSPLRPPMVVHKNHLVGWRIDGKAAPLYAHTLDQLAKLKPTQFKTIEPKNAFICRTYYEWDNWKEVSMEPGWTWHHVDEEIANNILDGTLTFDGLRATATDTP”, the “soluble on expression in E. coli” value is listed as “not soluble”.
For “QQKRAFEYEIRFYTGNDPLDVWDRYISWTEQNYPQGGKESNMSTLLERAVEALQGEKRYYSDPRFLNLWLKLGRLCNEPLDMYSYLHNQGIGVSLAQFYISWAEEYEARENFRKADAIFQEGIQQKAEPLERLQSQHRQFQARVSRQTLLALEKEEEEEVFESS”, the “soluble on expression in E. coli” value was “soluble”.
The entry for “MSLLITRFIADHQGHREGPDGLRWGVESICTQLTELGVPIAPSTYYDHINREPSRRELRDGELKEHISRVHAANYGVYGARKVWLTLNREGIEVARCTVERLMTKLGLSGTTRGKARRTTIADPATARPADLVQRRFGPPAPNRLWVADLTYVSTWAGFAYVAFVTDAYARRILGWRVASTMATSMVLDAIEQAIWTRQQEGVLDLKDVIHHTDRGSQYTSIRFSERLAEAGIQPSVGAVGSSYDNALAETINGLYKTELIKPGKPWRSIEDVELATARWVDWFNHRRLYQYCGDVPPVELEAAYYAQRQRPAEGHHHHHH” is “not soluble”; for “SSKVEQLRAQLNERILVLDGGMGTMIQSYRLNEADFRGERFADWPCDLKGNNDLLVLSKPEVIAAIHNAYFEAGADIIETNTFNSTTIAMADYQMESLSAEINFAAAKLARACADEWTARTPEKPRYVAGVLGPTNRTASISPDVNDPAFRNITFDQLVAAYRESTKALVEGGADLILIETVFDTLNAKAAVFAVKTEFEALGVELPIMISGTITDASGRTLSGQTTEAFYNSLRHAEALTFGLNCALGPDELRQYVQELSRIAECYVTAHPNAGLPNAFGEYDLDADTMAKQIREWAEAGFLNIVGGCCGTTPQHIAAMSRAVEGLAPRKLPEIPVACRLSGLEPLNIGEDSLFVNVGERTNVTGSAKF” it is “not soluble”; for “MQIALAPMEGLVDEILRDVLTRVGGIDWCVTEFIRITDRLLPATAFHKLAPELRDGSRTRAGTPMRVQLLGSDPACLADNAAFACELGAPVIDLNFGCPAKTVNRSRGGAVLLKEPELMHDIVAAVRRAVPSEIAVTSKMRLGYDSPDGALDCARALADGGSAHVVVHARTKVDGYRPPAHWEWVARVAEAVRVPVFANGEVWTLDDYLRCREVSGVEDIMLGRGLVSRPGLARQIAAWRDGGEIREMPWSELLPLLRDFWLQARRKLAPRYAPGRLKQWLGMLTRTYPEAVELFARIRRESDCETIDR” it is “not soluble”.
For “MFHLKTFSDMVESIQITSFHNAELLNFMIDEVKDARTLSKNEIIPTLDELDKVLATFKKGIAMNKTSEYSEKITALDAVRSKAFRNFIGCIQGETHRPEEDHREAARRLFILLKPYNNLNRKSYRNKTELMYKLVEVLRSDKHASDVQTVNVSAWIDKMDNANKAFDQLFDLRDNTEGERLIINNREMRHRIRLHYNRLLEIIEALLVLHADRPLEGFVGRHNERVAKMKALFALRASIGTKSTREKRDVLRSLAIGLGWSLPAGQEDFEFFAGTRILHPTEHRWYCLGKKDNIITLVLYKGKKKQSSSSSSNSSVDLPDLPAPPPSQPDNGSSGGGGEQGGGGSGGL”, the “soluble on expression in E. coli” value is “not soluble”.
Turning to “MGSDKIHHHHHHMSKKVVLTREASKNKPWQTYFSQNGYEVMSIPLIKTQPIKINLTREQQETDWLFLTSANAVEYFFTNQYERSNYKIAVIGEKTKEKLAEFGHEPSFVPSIYQSEVFLEEWLNENPEKTSILLPQSNLSRTIIKDTLIEKGYIVFSIELYETIFPEASKKLLTEQLKLNETQIIVFASPSAWKNFYSIAKSFPAQKEKWHIASIGSITTEAILADGWEVKYQPKTFTMKHLADLIIQEELK”, the “soluble on expression in E. coli” value was “not soluble”.
Consider “MESALQKAAGEGMDEFIQVFTDKYKEIIGGELTADTMPLLTGEQHSLLAYQIFRDEIMFGGFCQLIQNGYGGYIFDNPFAKVMRLWGAEEFSKLVYKAKKIYDANRKDLEKERTDDEFMAMYEQYEAFDDLEEAYLDMEEQVTTLVASYVDNHLELFAKIIK”, for which the “soluble on expression in E. coli” value was “not soluble”.
The entry for “MGWQTLKQQSVPARKRLLYLHIPFCATHCTFCGFYQNKLRDDSTATYTRYLLQELAMEADSPLHQSAPIHAVYFGGGTPTALAADELSQIIRAIRTSLPLAPDCEITVEGRAMDFDDERIDACLDAGANRFSIGIQTFDTRIRQRMARTSDKQQSIRFLERLCGRDRAAVVCDLMFGLPGQTPEIWREDLAIVSDLPLDGVDLYALNLLPTTPLAKAAENQRVALPDVVARRDFYRTGAAFLADSGWHQLSNSHWARTTRERNLYNLLIKQGADCLAMGSGAGGNINGQAYMMERSLERYYQQIDQGQKPIMMMTPASSTGPWQHQLQAGIEVGRIKLPQLTQHARELQPLLSQWHQAGLTCDDSTCLRLTNDGRFWANNLMQALQQIIPQLNAEEHAHLEHHHHHH” is “not soluble”.
Turning to “GPLGSNMDAAEVEFLAEKELVTIIPNFSLDKIYLIGGDLGPFNPGLPVEVPLWLAINLKQRQKCRLLPPEWMDVEKLEKMRDHERKEETFTPMPSPYYMELTKLLLNHASDNIPKADEIRTLVKDMWDTRIAKLRVSADSFVRQQEAHAKLDNLTLMEINTSGTFLTQALNHMYKLRTNLQPLESTQSQDF”, the “soluble on expression in E. coli” value is on record as “soluble”.
As for “MLKKIERAQQLLKKEAAVFRCPTCHEPMHLEGVGLICQQRHQFDLSKKGTLYFLNHGVQTEYNKKMFTSRGKMIQSGMYAPVLNKIMHYLPQNKTVVDVGCGEGSFLAELSQAGLSGLKIGFDLSKEGIYLASNQPIDAFWCVADLTNLPFANEGLDTILNIFSPSHYQEFRRVLKADGTVIKIIPEENYLKELRAAFYPNDEKKQSYSNQKVVQRFAEELAVEVDERITYCFDIPEERRLDLLEMSPLEWQVSQEVKAELQQRPLEKITIDVRLLVGRKR”, the “soluble on expression in E. coli” value is given as “not soluble”.
For the sequence “MAHHHHHHMERGKNPMEAELNRAPQEVSLSAFSLLFSEIVQYCLWKSKRGYRIEDSLHEMGLRVGYKLNEYLPYKNKTKRCVNIISILTFLSKHLWKYLFQHSSDLLKSQDSIYEYMLCDKNILLNRFISVPKDYGNINCASFAAGIVEGMLCSAEFQAEVTAHTVYEDEKNFNTTIFIKFYPEVVNRERGEK”, the “soluble on expression in E. coli” value is recorded as “not soluble”.
For the sequence “MSLKIYFLPMLLSLFFLGACDKNDEIIPEDADENFITSVVMTVDGKSYTADITDNTVTITVPYTVSLNNAEVEFKYTTSATIIPDPETVTDWDNERTFRVTSYNGDAREYTYKVVKSEIESDGDVELKTTEEVASFAATKTTVVKGNLIIGSDAEEAEKITDISALASLKEVTGNIVIRNSYNGADLTGLDNIVSAGGLQVGSTDVASKATELHMISMKALETLSGDISVYNDQVTYVLFEKLATIEGSVMFNASSLQSFEFPVLTTVGQDLNLQGLNEENTAAGSIASLEIPELTSVGGVLSVNNLAKLTSMSFLKLKETGGLDFHTVPVMLETINLPEIETVNGSIIMEANMEAPPTGSFVPQRNDVLQAFGGMDKLTTIKGQIKIKNFTALKQLPDWSKITTLGSITLDYLEDVSGTLLLPNARFETFGETAPQIEIINKVQLSKIETAEDLSNVNFVITSLTNNKFPEITFKNIKDFTCKPTTNNTDYTISTIQHVYGNLNVTGQMRSNAKFPDLEIIDGYGYIQIPMFASITMPVLKEVGGQFYLSGNFTSCNLPLLSKVCCSASPVYYKEGEGSLAISLQSKSLDIPELLHVGGEGLFVNKATGITCDKLQTIDGTLQIKSATSLSQETLSMEKLETLHGVVFDGLTKFTDYTFFGKFIENGMITGESWSVTKCGYNPTFQNMKDKQYTEGHHHHHH”, the “soluble on expression in E. coli” value was “soluble”.
As for “SNAMSLEMFDKEIFDLTNKELERQCEGLEMIASENFTLPEVMEVMGSILTNKYAEGYPGKRYYGGCEFVDEIETLAIERCKKLFNCKFANVQPNSGSQANQGVYAALINPGDKILGMDLSHGGHLTHGAKVSSSGKMYESCFYGVELDGRIDYEKVREIAKKEKPKLIVCGASAYARVIDFAKFREIADEIGAYLFADIAHIAGLVVAGEHPSPFPYAHVVSSTTHKTLRGPRGGIIMTNDEELAKKINSAIFPGIQGGPLMHVIAAKAVGFKFNLSDEWKVYAKQVRTNAQVLANVLMDRKFKLVSDGTDNHLVLMSFLDREFSGKDADLALGNAGITANKNTVPGEIRSPFITSGLRLGTPALTARGFKEKEMEIVSNYIADILDDVNNEKLQENIKQELKKLASNFIIYERAMF”, the entry is “soluble”; as for “MIKQVIQQLRVPDAGIENLQERRYWLQCERAYTYQPIYQTDGRLMAVELLTVVTHPDNPSRRIAPDRYFAELAVRHRIDVVKEQLHQLEQKADFFTRHHLLASVNVDGPTLIAMRRQPDILAAMERLPWLRFELVEHIRLPKDSSFASMCEFGPLWLDDFGTGMANFSALSEVRYDYIKVARELFVMLRQSPEGRNLFTLLLQLMNRYCRGVIVEGVETLEEWRDVQRSPAFAAQGYFLSRPVPLISLEEVILTL”, “not soluble”.
As for “MSLAVTLKDVAEACGVSYSTVSKALKNSQLVKPNTKQMIQQKALEMNYIPNHSARALVSKKSGTIGLIWPSVDRVAVTHLITEINLAIKSLGYVMFVSIDDVAAASKKFVEFGCDGIIIFDEDETTNLPPEIYNNVPVVAYGVDRDIPYPIVNVNHAEAMIIAIKELLAKGIDRIDYIGDIHTNDARQIAKKDAIANYCEQHHIQYRMIDSSGLNAIEAETSVKHFLQESSLAPGVICGSYDITVGTINAMGSDEQPIIYSYDNIPQIKKIDYPVQAIGVPTAEIAQQVVAILDKVIKGEPIENTYHLHPSLSHNQEGHHHHHH”, the entry is “soluble”.
